Measured values: the supplement of paper PMC9732359
± gives the uncertainty stated by the source.

Test: protein stability index of a GFP-peptide fusion (yeast GPS) (PSI 1-4); higher = more stable; sorted into four equal gates, so the index is relative within each strain
Method in brief: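 The protein stability index combines read frequencies across sorting gates, each weighted by its gate number and then summed. To obtain those frequencies, a pooled yeast library of GFP fusions to tiled 17-residue yeast protein peptides, on a plasmid also expressing Cherry, was grown to mid-log phase in leucine-free medium. The cells were sorted into four equal gates by GFP/Cherry ratio before plasmid amplification by PCR and Illumina sequencing.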

Sequence | protein stability index (doa10∆) | protein stability index (pdr5∆) | protein stability index (san1∆) | protein stability index (ubr1∆)
NPIHVSRHFASYANLPG [FAS1] | 2.23 ± 0.059 | 2.36 ± 0.05 | 1.94 ± 0.081 | 2.11 ± 0.038
IYQHLASHNEKDQDSQI [SRP72] | 2.58 ± 0.092 | 2.45 ± 0.074 | 2.53 ± 0.12 | 2.78 ± 0.099
GQRPDRATTYEKLTMVF [SIN4] | 1.27 ± 0.087 | 1.48 ± 0.067 | 1.53 ± 0.19 | 1.14 ± 0.11
FCPIVEEIVSNSSRFSD [YCS4] | 1.97 ± 0.1 | 1.35 ± 0.14 | 1.68 ± 0.21 | 2.35 ± 0.057
IPNQEVLQYSDWESDLH [YDL116W/NUP84] | 2.1 ± 0.056 | 2 ± 0.056 | 2.43 ± 0.043 | 2.18 ± 0.057
FEIVDREKNSLESGKET [SMC4] | 3.31 ± 0.26 | 3.16 ± 0.18 |  | 
NYGIVELDPECQLQNSD [RRP43] | 2.96 ± 0.075 | 3.01 ± 0.062 | 2.93 ± 0.054 | 3.02 ± 0.078
IDNGAESSENEAEDDDN [RPC53] | 3.33 ± 0.14 | 3.62 ± 0.17 | 3.15 ± 0.11 | 2.81 ± 0.16
YMDSMNEKVAVMRNTYN [GAL11] | 2.72 ± 0.13 | 3.24 ± 0.062 | 2.35 ± 0.069 | 2.34 ± 0.098
IVNGQTFSYVDSSLQPE [YMR129W/POM152] | 2.47 ± 0.05 | 2.67 ± 0.059 | 2.62 ± 0.052 | 2.06 ± 0.042
SLTPTQSDSAKVEIKKV [PRP28] | 3.01 ± 0.12 | 3.39 ± 0.069 | 2.92 ± 0.093 | 3.1 ± 0.06
SSDGQLKKFRESLVHSA [BRR2] | 3.41 ± 0.15 | 3.25 ± 0.23 | 3.22 ± 0.16 | 3.33 ± 0.13
THKVTDIYSHEYKVITS [YMR129W/POM152] | 1.71 ± 0.065 | 1.97 ± 0.082 | 2.38 ± 0.089 | 2.13 ± 0.064
GGSGNGDDVVNDVQGID [RPP1] | 3.54 ± 0.25 | 3.55 ± 0.25 | 3.27 ± 0.079 | 3.1 ± 0.1
YDGVERVSLQDIKDFAD [QCR2] | 2.84 ± 0.1 | 2.75 ± 0.1 | 2.5 ± 0.076 | 2.41 ± 0.089
PVIDTQIANEFNTQQGI [YDL116W/NUP84] | 2.77 ± 0.051 | 2.99 ± 0.057 | 2.79 ± 0.042 | 2.95 ± 0.047
GILRRKSESDELQMRSF [RRP4] | 3.06 ± 0.11 | 3.04 ± 0.17 | 3.18 ± 0.11 | 3.16 ± 0.084
TVNHSEKFPNDVKLLNP [RPP1] | 2.79 ± 0.05 | 2.87 ± 0.034 | 3.08 ± 0.036 | 3 ± 0.036
IESQNLDLIPHSSSVFK [SRB4] | 2.46 ± 0.059 | 2.9 ± 0.053 | 2.55 ± 0.067 | 2.73 ± 0.038
ELLDFLTSNLSNYSRTM [YJL039C/NUP192] | 2.35 ± 0.076 | 2.54 ± 0.079 | 2.82 ± 0.054 | 2.59 ± 0.085
PRRDGERKRKSVRGAIV [RPS6A] | 3.16 ± 0.099 | 3.29 ± 0.075 | 3.33 ± 0.072 | 3.05 ± 0.087
AGQLALDLANSGDESNV [YDL116W/NUP84] | 2.93 ± 0.29 |  | 2.71 ± 0.26 | 3 ± 0.12
PRTLIGHRATVTDIAII [RPN14] | 3.24 ± 0.18 | 3.54 ± 0.2 | 3.29 ± 0.1 | 3.18 ± 0.094
AKITEIGSTSKRPIESG [YIL149C/MLP2] | 3.23 ± 0.084 | 3.07 ± 0.1 | 3.14 ± 0.11 | 3.31 ± 0.059
IGGRRFSEGTSADREIQ [RPT4] | 2.51 ± 0.085 | 2.59 ± 0.088 | 1.98 ± 0.12 | 2.77 ± 0.19
EAAKLLVDSLATFTSIE [RPN7] | 3.24 ± 0.18 | 3.1 ± 0.098 | 3.24 ± 0.096 | 2.68 ± 0.096
GYLIQVLLTFLQDELHK [YCS4] | 2.97 ± 0.1 | 2.02 ± 0.088 | 2.01 ± 0.12 | 3.24 ± 0.096

Sequence | protein stability index (doa10∆) | protein stability index (pdr5∆) | protein stability index (san1∆) | protein stability index (ubr1∆)
AGKADTSIRLEGDELEN [SRB4] | 2.67 ± 0.089 | 2.97 ± 0.12 | 2.91 ± 0.088 | 3.25 ± 0.077
QIILAYIKYNILLTSIS [SRP68] | 1.29 ± 0.08 | 1.25 ± 0.074 | 1.12 ± 0.28 | 1.18 ± 0.15
TPDANLISKPAKKNNFI [UBP6] | 3.12 ± 0.16 | 3.05 ± 0.1 | 3.15 ± 0.12 | 3.21 ± 0.12
STLTLSDSEDSDAKEQH [ESC2] |  |  |  | 1.06 ± 0.13
SQVLDLAKKIAPGKVEL [SMC2] |  | 3.28 ± 0.19 |  | 2.84 ± 0.2
EEYKQLVKDRKFLREVF [RPO21] | 3.32 ± 0.078 | 3.49 ± 0.076 | 2.81 ± 0.084 | 2.98 ± 0.11
SQPNNTPSFSFGKTTAN [YLR335W/NUP2] | 2.76 ± 0.054 | 2.84 ± 0.051 | 2.78 ± 0.058 | 2.87 ± 0.048
RGMLGLLEPPAKELQGI [RPO31] | 2.08 ± 0.18 | 1.72 ± 0.18 | 3.28 ± 0.096 | 3.23 ± 0.16
NFLIKLSELSPGIMLRQ [YCS4] | 2.77 ± 0.093 | 2.98 ± 0.1 | 3.1 ± 0.094 | 2.95 ± 0.093
SYAGKQVVGPFHTSFSA [SMC4] | 2.7 ± 0.078 | 3.33 ± 0.11 | 3.08 ± 0.056 | 3.13 ± 0.049
HILLTELLAYQFASPVR [FAS2] | 1.81 ± 0.019 | 1.7 ± 0.018 | 1.81 ± 0.027 | 1.768 ± 0.017
APPQRPRFNRDNKVSPA [RPS26B] | 2.79 ± 0.1 | 2.45 ± 0.11 | 3.09 ± 0.14 | 
NTLLISGPFKVNGVPLR [RPL6A] | 2.25 ± 0.074 | 2.36 ± 0.059 | 2.28 ± 0.076 | 2.72 ± 0.04
ASVYPEYALPKTYNKLH [RPS26A] | 2.92 ± 0.076 | 2.51 ± 0.053 | 2.79 ± 0.059 | 2.71 ± 0.031
ELNDIDTKIDQVNGNIR [SMC3] | 3.34 ± 0.22 | 3.34 ± 0.12 | 3.07 ± 0.13 | 3.2 ± 0.1
EEAAEESDDDMGFGLFD [RPP1B] | 3.14 ± 0.059 | 2.87 ± 0.073 | 3.371 ± 0.029 | 3.23 ± 0.037
EIPTQIYRTTRQDGSYT [ARP9] | 2.94 ± 0.081 | 3.17 ± 0.086 | 2.93 ± 0.083 | 3.06 ± 0.059
ATQVKTDNTVDKFDFYK [RPT3] | 3.29 ± 0.12 | 2.98 ± 0.11 | 3.26 ± 0.095 | 3.09 ± 0.099
AETQGSKVVIDSIIDNI [IRR1] | 2.79 ± 0.098 | 3.26 ± 0.07 | 3.08 ± 0.12 | 2.99 ± 0.039
SEEEEDEEENGSSDEDL [SSN2] | 3.48 ± 0.26 | 3.74 ± 0.24 | 3.63 ± 0.12 | 3.32 ± 0.17
IVVMDCFNLPVVGTETR [RRI1] | 2.24 ± 0.13 | 2.66 ± 0.12 | 2.29 ± 0.17 | 
SELAVATTSVMMVNNQT [SRB6] | 3.12 ± 0.2 |  |  | 
TLLARAVAHHTDCKFIR [RPT6] | 3.09 ± 0.11 | 3.03 ± 0.076 | 1.86 ± 0.14 | 2.23 ± 0.15
KNLIQLISLKLLTFEVT [SRB8] | 1.28 ± 0.081 | 1.19 ± 0.054 | 1.24 ± 0.13 | 1.1 ± 0.071
LRPGQEISLKAHCILGI [RPC40] | 2.12 ± 0.14 | 2.49 ± 0.13 | 2.14 ± 0.099 | 1.82 ± 0.12
AYSSRFQTPFRRRREGK [RPL5] | 2.9 ± 0.078 | 2.75 ± 0.068 | 2.58 ± 0.082 | 3.04 ± 0.064
VFKTHSYRGVDLEKLLE [RPS15] | 3.2 ± 0.083 | 3.18 ± 0.062 | 3.14 ± 0.045 | 2.29 ± 0.04
